Assay results from paper PMC3545873.

How the values were obtained:
[1] = target: StrepTag II; conditions: cited from earlier work
[2] = target: StrepTactin; test: optical tweezers (single-molecule pulling); STN covalently coupled to polystyrene beads; tST-DNA-biotin held by its biotin on NTV-coated beads; tST-STN linkage formed in situ; stretched and relaxed at 50 nm/s to just beyond DNA overstretching at about 65 pN until the connection broke; connections that broke below 20 pN disregarded; N = 111

average rupture force [2]	Substance	Kd [1]	fraction of times the tether survives overstretching (first pull) [2]	fraction of times the tether survives overstretching (subsequent pulls) [2]
–	Streptavidin (from UniProt P22629)	72 µM	–	–
> 65 pN	tST-DNA-biotin (tandem of two StrepTag II peptides linked to 2553 bp dsDNA, biotinylated at the other DNA end)	–	77%	87%
